Data reported in patent US20120171123A1, “USES AND COMPOSITIONS FOR TREATMENT OF RHEUMATOID ARTHRITIS” (priority 2006, published 2012).
Like-named read-outs stand apart in the source and are kept apart here.

Assays:
[1] = tested on: patients with severe RA who had failed MTX; assay: Study 2 / Study 3 OLE (adalimumab monotherapy): SF-36; format: in vivo, human; settings: within 26 weeks
Protocol: In addition to the SF-36 instrument, the Health Utilities Index Mark 3 (HUI3) and the Functional Assessment of Chronic Illness Therapy-Fatigue (FACIT-F) questionnaires were administered at baseline, 12 weeks, and the end of the study.
The HUI3 scale is 0-1, with “1” denoting perfect health and “0” denoting death. FACIT-F scores range from 0-52, with higher scores representing less fatigue. The SF-36 includes one multi-item scale that assesses eight different dimensions of health, including physical and psychosocial components. For each dimension a value of 0-100 is given, with higher numbers representing less impairment. Changes in HUI3 of ≧0.03, in FACIT-F of ≧4 and in SF-36 of ≧4.4 (physical subscales) and ≧3.1 (mental subscales) are considered clinically meaningful.
In addition to clinical parameters, the SF-36 instrument, the Health Utilities Index Mark 3 (HUI3), and the Functional Assessment of Chronic Illness Therapy-Fatigue (FACIT-F) questionnaires were administered at baseline, and at weeks 12, 26, 50, 74, 98, 122, 146 and 170, respectively. The HUI3 scale ranges from 0-1, with “1” denoting perfect health and “0” denoting death. FACIT-F scores range from 0-52, with higher scores representing less fatigue. SF-36 scores range from 0-100 with higher scores indicating improvement in HRQoL. […]

[2] = tested on: patients with RA who had failed prior treatment with infliximab; assay: Adalimumab after failed infliximab (16-week study): DAS28; format: in vivo, human; settings: for Change in DAS28, mean change from baseline: 16 wk
Source text: Patients eligible to participate in the study included those with long-standing, moderate to severe RA who had terminated infliximab therapy because of lack or loss of efficacy and/or intolerance/side effects. […] Follow-up visits for safety and efficacy monitoring were scheduled at 2, 8, and 16 weeks. […] Efficacy parameters included TJC28 and SJC28; DAS28; ACR20, ACR50 Response; Moderate EULAR response; and HAQ. Subgroup analysis by reason for discontinuation included: • in case of discontinuation due to lack or loss of efficacy, patients were counted in the corresponding group regardless of additional cause of intolerance. • The subgroup “Discontinuation due to intolerance” was exclusive.

[3] = tested on: patients with moderate to severe rheumatoid arthritis; assay: Study C: EULAR response; format: in vivo, human; settings: 12 weeks
Protocol: The Canadian Adalimumab Clinical Trial (Study C) was an open-label, multi-center, Phase IIIb study conducted in Canada. […] Efficacy and safety were assessed at baseline, 4, 8, and 12 weeks. Efficacy assessments included tender joint count (TJC 0-28), swollen joint count (SJC 0-28), Disease Activity Score 28 (DAS28), Health Assessment Questionnaire (HAQ), and EULAR response. This was a preliminary analysis of 236 patients. The sample size for each outcome variable is based on the data available at the time of the analysis. The data from this preliminary analysis were compared with the Week 12 data from Study A (N=2008).

patients with RA = tested on: patients with RA
Source text: The ADA pivotal trials were Study I, Study I (both ADA+MTX in MTX partial responders), Study 2 (ADA monotherapy) and Study K (ADA added to standard of care). Patients from the Phase I-III controlled clinical trials of ADA in RA, including the pivotals, were allowed to receive ADA as long-term, open-label therapy in 3 extension studies: 1) Study 18, for ADA monotherapy in the EU, 2) Study 20, for ADA with MTX in NA, and 3) the extension of Study 1, in NA. […] Adverse events are classified as “serious” adverse events based on the following regulatory criteria: fatal, life-threatening, requires inpatient hospitalization, prolongs hospitalization, causes congenital anomaly/birth defect, results in persistent or significant disability/incapacity, an important medical event that jeopardizes the patient and requires medical/surgical intervention to prevent another serious outcome. Serious infections (SI) are defined as “serious adverse events” that are coded under “Infections and Infestations” in the MedDRA coding system. […] 1, 2005 were analyzed in the report described herein. Non-serious infections were not included in this analysis. Serious infections reported during these trials were tabulated and rates were calculated as events per patient-year (E/PY). […] Rates of SI were determined for subsets of patients who, at the time of the SI, had diabetes, or were using concomitant steroids or concomitant MTX.

[4] = open-label trials, N = 2504, 7951 PY

With “adalimumab: human anti-TNF mAb (HUMIRA, Abbott Laboratories), described in U.S. Pat. No. 6,090,382 as D2E7” the “SF-36 scores of all subscales/domains” value [1] was “clinically meaningful improvements”, the “Change in DAS28, mean change from baseline” value (from here on “Change in DAS28, mean change”) ([2]; all reasons for infliximab withdrawal (N=37)) was −1.6 and the “Change in DAS28, mean change” value ([2]; infliximab intolerance (N=5)) was −1.4. For the same substance, the “Change in DAS28, mean change” value ([2]; no response to infliximab (N=13)) was −1.0, the “maximum change in DAS28” value ([2]; week 16) was −4.7 and the “patients with a decrease in DAS28 of ≧1.2” value ([2]; week 16, completers (21 of 37)) was 57%. For the same substance, the “Good EULAR response” value [3] was 18%, the “Moderate EULAR response” value [3] was 79% and the “EULAR response, % good” value ([3]; Study C, preliminary analysis) was 18 (121) %. For the same substance, the “EULAR response, % moderate” value ([3]; Study C, preliminary analysis) was 78 (121) %, the serious infection rate (patients with RA; 146 patients with diabetes, 427 PY) was 0.049 /PY and the “patients who experienced a serious infection” value (patients with RA; 285 of 2504 patients) was 11%. The serious infection rate (patients with RA; 2504 patients, 7951 PY, to Mar. 1, 2005) was 0.045 /PY, the “rate of serious infections” value (patients with RA; all patients) was 4.5 events per 100 PY and the serious infection rate (patients with RA; blinded controlled phases of pivotal trials, 1380 patients) was 0.042 /PY. It also gave a Pneumonia (patients with RA; human, in vivo) of 64 events, a cellulitis (patients with RA; human, in vivo) of 29 events and a Septic arthritis (patients with RA; open-label trials) of 37 events. For the same substance, the “Patients with serious infections, %” value (patients with RA; [4]) was 11.4%, the “Serious infection Cellulitis: number of events E” value (patients with RA; [4]) was 29 and the “Serious infection Cellulitis: rate (E/100PY)” value (patients with RA; [4]) was 0.4 E/100PY. For the same substance, the “Serious infection Pneumonia: number of events E” value (patients with RA; [4]) was 64, the “Serious infection Pneumonia: rate (E/100PY)” value (patients with RA; [4]) was 0.8 E/100PY and the “Serious infection Septic Arthritis: number of events E” value (patients with RA; [4]) was 37. For the same substance, the “Serious infection Septic Arthritis: rate (E/100PY)” value (patients with RA; [4]) was 0.5 E/100PY, the “rate of serious infections” value (patients with RA; with diabetes mellitus) was 4.9 events per 100 PY and the “rate of serious infections” value (patients with RA; without diabetes mellitus) was 4.5 events per 100 PY.
